# B1: Ribonucleoside-diphosphate reductase large subunit (Human herpesvirus 2 (strain HG52) (HHV-2)), P89462 (parent)
# chain: MANRPAASALAGARSPSERQEPREPEVAPPGGDHVFCRKVSGVMVLSSDPPGPAAYRISDSSFVQCGSNCSMIIDGDVARGHLRDLEGATSTGAFVAISNVAAGGDGRTAVVALGGTSGPSATTSVGTQTSGEFLHGNPRTPEPQGPQAVPPPPPPPFPWGHECCARRDARGGAEKDVGAAESWSDGPSSDSETEDSDSSDEDTGSETLSRSSSIWAAGATDDDDSDSDSRSDDSVQPDVVVRRRWSDGPAPVAFPKPRRPGDSPGNPGLGAGTGPGSATDPRASADSDSAAHAAAPQADVAPVLDSQPTVGTDPGYPVPLELTPENAEAVARFLGDAVDREPALMLEYFCRCAREESKRVPPRTFGSAPRLTEDDFGLLNYALAEMRRLCLDLPPVPPNAYTPYHLREYATRLVNGFKPLVRRSARLYRILGVLVHLRIRTREASFEEWMRSKEVDLDFGLTERLREHEAQLMILAQALNPYDCLIHSTPNTLVERGLQSALKYEEFYLKRFGGHYMESVFQMYTRIAGFLACRATRGMRHIALGRQGSWWEMFKFFFHRLYDHQIVPSTPAMLNLGTRNYYTSSCYLVNPQATTNQATLRAITGNVSAILARNGGIGLCMQAFNDASPGTASIMPALKVLDSLVAAHNKQSTRPTGACVYLEPWHSDVRAVLRMKGVLAGEEAQRCDNIFSALWMPDLFFKRLIRHLDGEKNVTWSLFDRDTSMSLADFHGEEFEKLYEHLEAMGFGETIPIQDLAYAIVRSAATTGSPFIMFKDAVNRHYIYDTQGAAIAGSNLCTEIVHPASKRSSGVCNLGSVNLARCVSRQTFDFGRLRDAVQACVLMVNIMIDSTLQPTPQCTRGNDNLRSMGIGMQGLHTACLKMGLDLESAEFRDLNTHIAEVMLLAAMKTSNALCVRGARPFSHFKRSMYRAGRFHWERFSNASPRYEGEWEMLRQSMMKHGLRNSQFIALMPTAASAQISDVSEGFAPLFTNLFSKVTRDGETLRPNTLLLKELERTFGGKRLLDAMDGLEAKQWSVAQALPCLDPAHPLRRFKTAFDYDQELLIDLCADRAPYVDHSQSMTLYVTEKADGTLPASTLVRLLVHAYKRGLKTGMYYCKVRKATNSGVFAGDDNIVCTSCAL
# Variants of: B1
# Settings: with ripk3_human RIPK3, Q9Y572
# Chain of ripk3_human RIPK3, Q9Y572 (Q9Y572 whole entry, looked up): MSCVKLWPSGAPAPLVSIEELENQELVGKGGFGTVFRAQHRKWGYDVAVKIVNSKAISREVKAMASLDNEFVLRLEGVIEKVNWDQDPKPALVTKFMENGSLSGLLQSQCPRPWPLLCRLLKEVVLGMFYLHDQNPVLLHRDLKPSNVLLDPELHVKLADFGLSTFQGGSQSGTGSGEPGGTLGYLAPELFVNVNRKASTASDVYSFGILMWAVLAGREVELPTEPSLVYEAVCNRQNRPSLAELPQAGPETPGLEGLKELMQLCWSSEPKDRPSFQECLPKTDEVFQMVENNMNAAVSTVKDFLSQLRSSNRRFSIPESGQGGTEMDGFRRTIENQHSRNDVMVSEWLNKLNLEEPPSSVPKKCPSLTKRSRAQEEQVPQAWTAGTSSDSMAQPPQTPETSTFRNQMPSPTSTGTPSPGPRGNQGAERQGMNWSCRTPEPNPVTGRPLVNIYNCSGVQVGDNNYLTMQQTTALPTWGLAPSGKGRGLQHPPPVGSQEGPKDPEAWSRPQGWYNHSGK
row,Variant,effect of a mutation on the interaction
1,V64A;Q65A;C66A;G67A,decreasing interaction strength

# From IntAct's records for PubMed 26559832
